Source: the DeepSol protein solubility set

assay: soluble on expression in E. coli; label from the status in PepcDB or PDB records

| Sequence | soluble on expression in E. coli |
| --- | --- |
| MGSDKIHHHHHHMILSEVRIHNFRNIASTSLILNPNFNCITGPNGGGKTSLLEALYMLSCAHSFRSREITPIISYGQNQLNVFAHAYDESTISVQKSITDGTQIKLNNQFCCTTSQLAYALPCQVIYSDIFQIIDAGPSVRRSLLDWGLFHVKHDYLKIWKDYKRILSQRNALLKSRATYDHFIPWDQQLSQLANQLDKARNDYFLQWQPKFYQVLSDLTNISCTVEYYKGWDRKNAGQNMEELLQKSFDSDRKKLYTQYGPHQADLIISTEQYRVKHTLSRGQQKIILIALKLAQGQLLDKDCLYLIDDLAAELDDYHQRNLIKYLTQQKGQFVITNLINNNNYDILPIDSGLFEVNCGAIKNL | not soluble |
| MGSDKIHHHHHHMILSVSRRTDIPAFYSEWFFNRLKEGFVYVINPFNERKVSKVELNKETVDLFVFWTKDAEPMLKRLDELNEFKYYFQFTITSYRNDVERMTRKKKDIIDTFRILSKKIGKEKIIWRYDPIFLNDFYTKEYHYRWFERFCDKLEGYTDKCIISFLDLYKKTEINTRCLNIHKMDEKSMRQVAKQLSIIANKHNIIIETCSEGIDLSDYGIKKGSCIDKNLISKIIDFGVELKKDNNQRELCGCVKSVDIGQYNTCKHHCLYCYANFNEKLLNDSILKYNPKAPTLAYTLKGDEKITVREMESIKGNKQKQLDLFKNIKQGE | not soluble |
| MGSDKIHHHHHHMINAEPIISKMKNQKINYDKVLKKLIGQWEREAIRPKILLHSCCAPCSTYTLEFLTQYADIAIYFANSNIHPKNEYLRRAKVQEQFVEDFNRKTGANVKYIEAPYEPHKFVKMVKDKELADEKEGGLRCTACFEMRLDIVAKAAVEHGYDYFGSAITLSPKKNAQLINELGMDVQKIYDVNYLPSDFKKSKGYERSIEMCNDYNIFRQCYCGCVFAAMQQGIDFKTVNKEAKAFLEQYPD | not soluble |
| MGSDKIHHHHHHMINSTFLTNRVFSTWYYFSLLLYKEKGCDLVKTPKIVVLGAGYGGMITTVRLQKALSVNEAEITLVNNNSYHYQATWLHESAAGTLQDEKICLDIQDVIDTNKVNFVQDTVVEIKAAEKRIILKDGELEYDYLVIGLGFESETFGITGLKEHAFSIANINATRQIREHMEASFAKYADEKRDELVTIVVGGAGFTGIEYVGELANRVPELCKQYNVPREKARIICVEAAPTALPGFDPALVEYAVKQLEKKGVEFRIGTAIKEATEEGIIVANGDDTELIKSETVVWAAGVRGNGIVEESGFEAMRGRVKVDEYMHAPGYEDVFMVGDAALIINEEINRPYPPTAQIAIQQGYNIAHNLTVLVRGKGEMKKFVFDNKGSVCSLGHDDAMGVVMGKKLTGWKASFMKKVIDNRYLFLLGGPLLVLKKGKLKFF | not soluble |
| MGSDKIHHHHHHMIPKNIHLIFLRKDEPFPELFEKCKQEIQVNHPDWNIRLYNKDDAQDILNQDLPEYIEAYNAFYHNVQKADFLRLALVYLYGGFYMDLDMLSLKPLDELRKYNLVLGEEKIVCQAEQEALNLRYRLRIANYMFGGIPKHPFLHRIMDEMAERATIILKSQQEILDITGPGLLTDTYWDNYGMYTDITLLRNTDKRCRQPYHNEISCHFGDYAAHLHAGTWRTGI | not soluble |
| MGSDKIHHHHHHMIQPVSCICPIAAKLITSRPAQKLLPAPESTTARASEAATSLAAAITAASMCLSTAFILSARVRVTWATWSRISTDTRALSSAITAPPSGCRLNVACSLPRFGRAFQPDARARRTGSFPDRDLISPDLPLPACARAARSWAMTDSRQTPLAQSLPASVPFVGPETHERQRGAPFVARLGANENLFGVSPKAIAAMQASAAEIWKYGDAESYELRAALSALHGIAPEHIMVGEGIDGLLGNLVRLYVGAGDAVVTSLGAYPTFNYHVAGFGGDLHTVPYKDDHEDIKALMAKAHEVGAKLVYLANPDNPMGSWHRGADIVAALDDLPEGSLLVLDEAYVECAPKGTAAPVDVTDPRVIRMRTLSKAYGMAGARVGYAMGAVEVISAFHKVRNHFGMNRCAQIGATEAIKDQAWLAHVQAEIATAREEISRIARENGLTPLPSATNFVAIDCGRDGAFAKAVLEALVARDIFVRMPFAAPQNRCIRVSCGPERERRAFAEALPLALKDAQNGA | not soluble |
| MGSDKIHHHHHHMIRFKDIHIPKPCSVEYDTLPGDDIKRFCGSCEKYVYDFRGKDQAYLNAVFSATGKACGIYYADQIQASPALKTNRPFYSSFVSKLIATSLFLRIFLTSNNTKAHRTEPQTIVQQTTDSTELKTIHTGNDKAMYRVTVDIYKNDTLEESFLLENQNSIYLPDSIKPLDKIKVVVSTVRYNIPTSKNRTRSGKYMSNKTYYTTEQKKTYHFNFAGCNKIIIKIRHTKFIHIFLKKRTAIMGLVCPSDFW | not soluble |
| MGSDKIHHHHHHMISDTTIRKLVDYISLNACSVNSSGLYNGKSGISLALFETAKCLQDTEIEDKAFSLFQESLIRKTNDYGFENGMSGIGYVLIYLITNKLIDADFEDLFGDQREAIIKHFENIDKQPDKLLVSYKIIYFLFVLDKLQKQDERIYSIIEKIFQGLELYLSLQFFDWKNIYYINSKDYVLQMYEAYLKLVDFCNYKYFSKSLMDSYVTLYSEGRIASSLVRGYYLHSIITKNNMVGFNDVIRDHIRYGQKNINPAILFLDQKINLTGIIENADENRVKIQRIEMDLFEESLERIKRMVRPNCIHVGYQYGLARYLGFCANKKFPLL | not soluble |
| MGSDKIHHHHHHMISVCIATYNGEKYLAEQLDSILLQVSEEDELIISDDGSTDHTLEILRTYAANYPQIQLLQGPGQGVIANFAFALTHTKGEVIFLADQDDVWLPNKVTTVTEYFETHPDIQVVISDLKIVDADLQVTNPSYFKFRKVKPGFWRNAIKSGYIGAGMAFRQEMKNVILPIPPEVPMHDMWIGLLAARKKQTGLIKEPLVLYRRHGANVSPIITKTSFQQKLNWRVNLLKALHQRLKEQR | not soluble |
| MGSDKIHHHHHHMITDENKKLAQWAMDYALKNGCQAAKVLLYSSSNTSFELRDAKMDRLQQASEGGLSLSLYVDGRYGSISTNRLNRKELETFIKNGIDSTRYLAKDEARVLADPSRYYKGGKPDLKLYDAKFASLNPDDKIEMAKAVAEEALGKDERIISVGSSYGDGEDFAYRLISNGFEGETKSTWYSLSADITIRGEGEARPSAYWYESSLYMNDLIKKGIGQKALERVLRKLGQKKVQSGKYTMVVDPMNSSRLLSPMISALNGSALQQKNSFLLNKLNEKIASDRLTLTDEPHLVKASGARYFDNEGIATERRSIFDKGVLNTYFIDTYNAKKMGVDPTISGSSILVMETGDKNLDGLIAGVEKGILVTGFNGGNNNSSTGDFSYGIEGFLIENGKLTQPVSEMNVTGNLITLWNSLVATGNDPRLNSSWRIPSLVFEGVDFSGL | soluble |
| MGSDKIHHHHHHMITFDEIIPGVTDILKEYSKELDQMAPILVNRDLNGRVRLIIKDDIRGNSHAEGVLDKISKALHQRLGAHGFPPERIVLFETDMQTVLAETPCFPLDGVEGVSVADRLVTESNWSKGIAPTETVPRIVFFSIKGGVGRSTSLAAAAWALAESGKRVLVLDMDLESPGLSSSLLPQDRRPKFGITDWLVEDLVDNGDRVISDMIATSPLSRNGDIYVVPAHGADPGEYIAKLGRVWMPKVNAEGRRILWVQRLQGLLNALEDRLKPDVILLDSRAGIDEVASACVTDLGASSVLLFALDGDQTWSGYRILFRHWRQSGVVRDIRERLQVVGAMIPDVDAAGYYADLLESSWNAFSEELYDEIPAGLSANGEDYWNFDQADEAAPHYPWSIRWNRGFSAMRSLHNRFDTVDAEQVNYVFGDFLTGLAASVQNEEDER | not soluble |
| MGSDKIHHHHHHMITHRSDLNANYLLNALPRSEWESLAQHVELVRLRAGELLTDSGQRIVHVYFPTTSVVSLLSLLEDGATVEIAAVGNEGLVGVPVVTGGDTMPCRVEVRSPGLAYRIPARLLRSELPRTPTLQRVTLLYVQAMLTQIAQTAACNRHHSLNKQLCRWLLLAVDRLSSNELVITQQVIANMLGVRREGVTEAAGKLEDLGLIHHSRGHITVLDRCGLEKHSCECYKLVKREYDRLLPALAHA | not soluble |
| MGSDKIHHHHHHMITIKKGLDLPITGEPSREISEHRPAHVALIGYDYVGMKPTMNVKEGDIVAKGQSVFEDKKRAGVIYTAPAAGKVVAIKRGERRVFESLVIAVDPNGAEVEFQRYDSQQLADLDSEVVETQLLASGEWTAFRTRPYSRAPEIGARPHAIFVTAMDTNPLAFDPMLLINEQLQAFNDGLAVLSTLSPKTFVCHHGNSQLTPVAKTAANNVTEYHSFAGKHPAGLAGTHIHFLHPIMRGTSVWTIGYQDVIAIGKLFTSGRLYTRRLLSLAGPAVSNPHVIATERGADIAALTKGNLTAGENRVISGSVLSGRQVFANIAYLGRFDNQVSVLAEGRERPAFHFFTPGANRFSKLPIYISQFFGGKKYNFTTTSNGSPRAMVPIGVYEEVMPQDYLPTQLLRALIVEDIVTAVDLGVLELDEEDLALCTFVSPGKYEFGDILRDNLTRIELEG | not soluble |
| MGSDKIHHHHHHMITVRDLSWQYEPLVDGGKPVDSLKHVSFDIKSGSFVGVIGPTGAGKSTLCMALAGIIPNLADGTMTGLVEVNGMNTSRHSVSALSERIGYVQQDPEAQLFCASVEDEIAFPLENRGIAPDIIDKQIDVMLDLVGMTGYRKRVPASLSGGQMQRVAIAAALAAEPDVLILDEPTAALDPEGKQEVFDVLERIRQTRSMTVIMAEQDTEHIAYWADQVLFMVNGELVRNGDASLFVREKGLLESSGVQVADDPLPQVKAVQQGKKHKKDKKNQPERSKDVVISLDHVSYQYERGGNASKALDDVTFDIERGSFIGLIGRNGSGKTTLAKHLNGLIRPTQGTVTVDGLDASKHSVGEMAAHVGFVFQNPDHQIFCSTTKEEIAFGPTALGLDGATVFKRVDEMLTLFDLHRYEDVSPATLGYGERRAVALSSVLAMRTPILVLDEPTAGLDHRLAARFLGTIEKLNQRGVTIVMISHDMRAVYRYCTHVLELEDGKVVQYGPIDRSEAAQKQSRTIRKPRKSNGPVSATHVLLKVTKHEEGRH | not soluble |
| MGSDKIHHHHHHMIYLKIIRGFFSALREHPQSQSIPVIFVSALDETANQIQGLQGGAIDYLVKPVQPDILKLRLANLLATVNLQRDLQANYDNMLELSRLRDCVDELIHHDLKSPLSAISAMLQRLSQDKSCPKGWRSKLTAIHDLTMQSINTVNLSSEIFKIETGRFILKPERFSAHGLVKQVLHSMHVTFHHKQLIAFQFPDEDPNGQFDVLADETLTYSLLLNLIKNAFEASTMRTKVAIHLSIEQGNVVIQIENSGVVPEHIRPRFWDKYVTSQKEEGAGLGTYSACLLAKAQGGTTQLQVDDLQNKTIVTVCLPAAT | not soluble |
| MGSDKIHHHHHHMKASDFREWVGKITQLSRGQKEQTKHKLGGMVPRIEVAKWLESSFEPICPVCQSNHFYRWGYQAGLQRFYCRMCKHTFTAISGTPLARLRHKDQWLNYSAALIEGLTVRASARQCRIDKNTSFRWRHRFLTLPAAAKANHLEGIVEADETFFPVSCKGQRQLDRPPRKRGKQIHMRGTGKDQVPVLIVRDRSGATADFMLDAIDRKAIEPPLRTVLEKDVIFCSDGAAVYRSVARSLGITHRPVNLAAGVRVIAGVYHIQNVNAYHSRLKQWMKRFHGVATRYLENYLGWFRWLDQQENLSSPIVPLQAALGRENQFQLLTNT | not soluble |
| MGSDKIHHHHHHMKATLKSLRETKANPAVSIFVKTHREHPANDKDPIALKNQLKVVEERLTNEYDKRTATTILDNIHAKTKEHNHNLNLDTLAIFASTDDVQVIRMPIDTTERVVISHRFATRDLVRDMASAVHYYTLVLTRDKARLIEVSNDRVIREFDLDDTAQNNMENIPFPIDNNGLHTTSDGGSDRSANNDSSALKEFFNQVDKSVQELWGEHKMPLVVVGDTKNIGYYKDVCDRPDNIIATVSNATNLEEGSAQHIINSVQEAVEGYRTSLHQAALGEIDKARGANRLQTDLQEVYRSAFQGVGDTLYVRRGYIQPAKIDEKAQTLSLADDSGAEGITDDAIGEIIEHVIHNGGKAVFMPQDIMSEDQPIALVTRY | not soluble |
